# Literature values, collected in PMC3460238.
# Like-named read-outs stand apart in the source and are kept apart here.
# How the values were obtained:
# C3b (Homo sapiens) [1] = molecular target: C3b (Homo sapiens) (UniProt P01024)
# C3b (Homo sapiens) [2] = molecular target: C3b (Homo sapiens) (UniProt P01024); remark: listed apart in the source
# C3b (Homo sapiens), sequence (P01024 23-667, chain 1 of 2): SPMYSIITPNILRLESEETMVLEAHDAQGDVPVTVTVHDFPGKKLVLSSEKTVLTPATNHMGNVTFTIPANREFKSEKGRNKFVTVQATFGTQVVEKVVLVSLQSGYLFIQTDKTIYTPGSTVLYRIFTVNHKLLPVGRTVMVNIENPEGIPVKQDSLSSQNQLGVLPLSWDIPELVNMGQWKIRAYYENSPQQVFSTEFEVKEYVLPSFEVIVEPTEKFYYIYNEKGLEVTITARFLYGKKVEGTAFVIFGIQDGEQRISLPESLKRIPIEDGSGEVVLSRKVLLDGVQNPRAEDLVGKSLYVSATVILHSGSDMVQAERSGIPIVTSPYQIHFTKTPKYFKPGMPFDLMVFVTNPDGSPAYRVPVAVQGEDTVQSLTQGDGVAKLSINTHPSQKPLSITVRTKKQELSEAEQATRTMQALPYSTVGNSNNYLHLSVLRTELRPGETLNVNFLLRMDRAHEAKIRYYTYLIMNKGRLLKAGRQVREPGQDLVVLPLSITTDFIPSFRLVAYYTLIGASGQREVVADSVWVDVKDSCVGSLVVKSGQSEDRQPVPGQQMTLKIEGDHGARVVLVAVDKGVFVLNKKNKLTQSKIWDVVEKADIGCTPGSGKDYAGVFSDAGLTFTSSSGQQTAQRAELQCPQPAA
# C3b (Homo sapiens), sequence (P01024 749-1663, chain 2 of 2): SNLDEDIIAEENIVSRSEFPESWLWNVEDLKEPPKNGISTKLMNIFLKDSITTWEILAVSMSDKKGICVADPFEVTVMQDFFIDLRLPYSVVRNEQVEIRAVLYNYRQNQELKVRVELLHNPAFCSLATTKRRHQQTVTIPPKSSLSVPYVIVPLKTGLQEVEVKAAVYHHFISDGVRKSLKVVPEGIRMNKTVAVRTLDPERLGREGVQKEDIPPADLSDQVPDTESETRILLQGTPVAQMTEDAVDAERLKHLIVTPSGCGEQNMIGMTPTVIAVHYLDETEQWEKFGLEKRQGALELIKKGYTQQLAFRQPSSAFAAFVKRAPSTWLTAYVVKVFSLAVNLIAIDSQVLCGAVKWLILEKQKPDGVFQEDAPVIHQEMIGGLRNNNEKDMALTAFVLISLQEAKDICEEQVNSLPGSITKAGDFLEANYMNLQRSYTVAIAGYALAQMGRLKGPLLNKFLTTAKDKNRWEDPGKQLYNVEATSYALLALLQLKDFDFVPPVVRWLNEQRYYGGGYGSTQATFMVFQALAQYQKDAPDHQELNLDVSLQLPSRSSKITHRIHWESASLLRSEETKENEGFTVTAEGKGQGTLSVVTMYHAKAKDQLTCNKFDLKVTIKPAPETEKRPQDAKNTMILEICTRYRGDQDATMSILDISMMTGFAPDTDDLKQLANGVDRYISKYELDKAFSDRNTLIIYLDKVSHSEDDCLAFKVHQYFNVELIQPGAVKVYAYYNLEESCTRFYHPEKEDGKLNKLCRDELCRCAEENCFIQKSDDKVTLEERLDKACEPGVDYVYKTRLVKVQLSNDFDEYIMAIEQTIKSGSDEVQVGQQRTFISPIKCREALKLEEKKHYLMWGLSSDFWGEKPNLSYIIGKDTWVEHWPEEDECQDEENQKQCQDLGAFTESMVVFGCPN
# Factor H (62V), sequence (P08603 19-1231): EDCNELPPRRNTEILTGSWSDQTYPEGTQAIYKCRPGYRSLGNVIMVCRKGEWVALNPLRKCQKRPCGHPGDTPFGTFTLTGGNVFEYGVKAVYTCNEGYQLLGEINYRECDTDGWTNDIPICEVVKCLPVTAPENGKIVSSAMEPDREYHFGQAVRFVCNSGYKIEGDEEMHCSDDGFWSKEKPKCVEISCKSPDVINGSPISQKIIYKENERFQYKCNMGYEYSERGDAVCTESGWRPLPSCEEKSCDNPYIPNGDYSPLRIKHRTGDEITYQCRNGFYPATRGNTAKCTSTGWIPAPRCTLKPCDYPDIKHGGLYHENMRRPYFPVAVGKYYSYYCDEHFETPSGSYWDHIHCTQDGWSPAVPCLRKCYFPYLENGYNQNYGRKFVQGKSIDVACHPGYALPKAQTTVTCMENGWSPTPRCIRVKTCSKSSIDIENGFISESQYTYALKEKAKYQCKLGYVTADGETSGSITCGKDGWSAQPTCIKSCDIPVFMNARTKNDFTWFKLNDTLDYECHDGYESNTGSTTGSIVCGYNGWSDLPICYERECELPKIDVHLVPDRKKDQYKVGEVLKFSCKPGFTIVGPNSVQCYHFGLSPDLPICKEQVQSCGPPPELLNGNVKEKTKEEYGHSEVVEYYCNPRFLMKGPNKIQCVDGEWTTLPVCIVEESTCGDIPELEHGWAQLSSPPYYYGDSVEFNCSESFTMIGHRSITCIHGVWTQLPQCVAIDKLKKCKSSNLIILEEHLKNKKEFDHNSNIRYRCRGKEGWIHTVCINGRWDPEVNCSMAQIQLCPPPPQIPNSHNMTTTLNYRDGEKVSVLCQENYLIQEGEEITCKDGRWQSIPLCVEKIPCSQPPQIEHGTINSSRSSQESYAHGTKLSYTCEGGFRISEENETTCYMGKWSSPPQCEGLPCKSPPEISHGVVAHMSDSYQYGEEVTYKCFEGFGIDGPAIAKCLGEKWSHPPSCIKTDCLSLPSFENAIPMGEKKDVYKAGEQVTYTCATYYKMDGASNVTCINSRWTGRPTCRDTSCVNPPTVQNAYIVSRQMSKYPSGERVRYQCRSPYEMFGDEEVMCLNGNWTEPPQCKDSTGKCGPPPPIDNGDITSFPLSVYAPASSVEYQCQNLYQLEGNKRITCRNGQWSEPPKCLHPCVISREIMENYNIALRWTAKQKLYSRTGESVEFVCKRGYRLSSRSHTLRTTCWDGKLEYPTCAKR
Substance,Kd (C3b (Homo sapiens) [1]),Kd (C3b (Homo sapiens) [2])
Factor H (62I) (from UniProt P08603),1000 nM,–
Factor H (62V) (from UniProt P08603),–,1300 nM
